Several values for one entry are separate records, joined by “and”; a condition that tells them apart may be missing. Equal values may be shown once.

For CAP256 VRC26 UCA (antibody), in the experiment with CAP256SU (HIV-1), the IC50, neutralization amounted to 35 µg/mL. Besides, the fold reduction of neutralization reactivity with CAP256SU_UCA_OPT_3.0 was 3 fold and 4 fold.
Take CH01 UCA (antibody): the IC50, neutralization with CAP256SU_UCA_OPT is 1.92 µg/mL.
Regarding PCT64 LMCA (antibody), in the experiment with CH505 UCA_OPT2+N332, the IC50, pseudovirus neutralization was 105 µg/mL. This substance also displayed a 50% neutralization, pseudovirus neutralization in the experiment with CH505 UCA_OPT_2+H130D of 100 µg/mL.
For the substance PG16 RUA (antibody), the results for the fold enhancement of neutralization sensitivity with CAM13K+K169R (SIVcpz) and with CAM13RRK were 10 fold and 50 fold, respectively. Moreover, the fold improvement of neutralization sensitivity with CH505_V2UCAOPT_v3.0 was determined as 100 fold.

The record behind these values is patent US20250340598A1.
